Source: paper PMC8423358 (Immunity, 2021)

Target: DPP9, short isoform (DPP9S), co-expressed with CARD8 for cryo-EM (UniProt Q86TI2-1 1-863)
Experiment: cryo-EM structure

Sequence of DPP9, short isoform (DPP9S), co-expressed with CARD8 for cryo-EM (Q86TI2 whole entry, canonical isoform): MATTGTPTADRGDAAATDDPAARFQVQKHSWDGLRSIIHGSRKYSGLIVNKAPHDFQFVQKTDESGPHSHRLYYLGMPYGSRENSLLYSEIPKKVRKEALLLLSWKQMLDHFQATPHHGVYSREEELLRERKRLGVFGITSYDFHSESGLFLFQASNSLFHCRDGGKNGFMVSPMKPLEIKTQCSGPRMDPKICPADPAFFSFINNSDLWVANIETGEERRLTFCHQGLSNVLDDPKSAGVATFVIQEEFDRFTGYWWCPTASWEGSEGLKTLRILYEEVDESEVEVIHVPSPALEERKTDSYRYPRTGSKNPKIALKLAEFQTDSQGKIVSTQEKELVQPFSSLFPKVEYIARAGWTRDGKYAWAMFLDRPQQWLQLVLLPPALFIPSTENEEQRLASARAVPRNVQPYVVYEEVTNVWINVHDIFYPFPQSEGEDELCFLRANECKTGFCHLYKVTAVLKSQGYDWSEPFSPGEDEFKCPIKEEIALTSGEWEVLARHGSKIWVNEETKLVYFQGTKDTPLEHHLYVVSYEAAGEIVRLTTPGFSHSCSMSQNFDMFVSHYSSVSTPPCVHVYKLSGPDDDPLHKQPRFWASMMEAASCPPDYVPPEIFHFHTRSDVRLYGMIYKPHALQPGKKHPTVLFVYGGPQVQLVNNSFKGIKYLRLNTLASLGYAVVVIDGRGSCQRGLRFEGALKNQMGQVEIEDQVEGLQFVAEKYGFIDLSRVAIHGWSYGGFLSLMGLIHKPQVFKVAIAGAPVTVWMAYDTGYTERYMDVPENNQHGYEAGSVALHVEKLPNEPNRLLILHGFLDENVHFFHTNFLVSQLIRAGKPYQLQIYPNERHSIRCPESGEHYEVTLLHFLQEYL

Binder	binding result
Full-length CARD8 (T60 isoform), molecule A of the CARD8-DPP9 ternary complex (natural protein, human, UniProt Q9Y2G2-5 1-537, looked up) MEKKECPEKSSSSEEELPRRDSGSSRNIDASKLIRLQGSRKLLVDNSIRELQYTKTGIFFQAEACVTNDTVYRELPCVSETLCDISHFFQEDDETEAEPLLFRAVPECQLSGGDIPSVSEEQESSEGQDSGDICSEENQIVSSYASKVCFEIEEDYKNRQFLGPEGNVDVELIDKSTNRYSVWFPTAGWYLWSATGLGFLVRDEVTVTIAFGSWSQHLALDLQHHEQWLVGGPLFDVTAEPEEAVAEIHLPHFISLQAGEVDVSWFLVAHFKNEGMVLEHPARVEPFYAVLESPSFSLMGILLRIASGTRLSIPITSNTLIYYHPHPEDIKFHLYLVPSDALLTKAIDDEEDRFHGVRLQTSPPMEPLNFGSSYIVSNSANLKVMPKELKLSYRSPGEIQHFSKFYAGQMKEPIQLEITEKRHGTLVWDTEVKPVDLQLVAASAPPPFSGAAFVKENHRQLQARMGDLKGVLDDLQDNEVLTENEKELVEQEKTRQSKNEALLSMVEKKGDLALDVLFRSISERDPYLVSYLRQQNL	binds
CARD8-S297A (autoproteolytic-deficient), full length, for cryo-EM (natural protein, human, UniProt Q9Y2G2-5 1-537, looked up) MEKKECPEKSSSSEEELPRRDSGSSRNIDASKLIRLQGSRKLLVDNSIRELQYTKTGIFFQAEACVTNDTVYRELPCVSETLCDISHFFQEDDETEAEPLLFRAVPECQLSGGDIPSVSEEQESSEGQDSGDICSEENQIVSSYASKVCFEIEEDYKNRQFLGPEGNVDVELIDKSTNRYSVWFPTAGWYLWSATGLGFLVRDEVTVTIAFGSWSQHLALDLQHHEQWLVGGPLFDVTAEPEEAVAEIHLPHFISLQAGEVDVSWFLVAHFKNEGMVLEHPARVEPFYAVLESPSFALMGILLRIASGTRLSIPITSNTLIYYHPHPEDIKFHLYLVPSDALLTKAIDDEEDRFHGVRLQTSPPMEPLNFGSSYIVSNSANLKVMPKELKLSYRSPGEIQHFSKFYAGQMKEPIQLEITEKRHGTLVWDTEVKPVDLQLVAASAPPPFSGAAFVKENHRQLQARMGDLKGVLDDLQDNEVLTENEKELVEQEKTRQSKNEALLSMVEKKGDLALDVLFRSISERDPYLVSYLRQQNL	binds
